# B1: D24 (ssRNA)
# RNA: GGGAGACAAGAAUAAACGCUCAAGCGGUAUGUAGGGAAUAGCACUUUUUUUGCGUAUACCUACACCGCAGCGAACGACAGGAGGCUCACAACAGGA
# modifications: 2'-F pyrimidines (all C and U)
# B2: D12 (ssRNA)
# RNA: GGGAGACAAGAAUAAACGCUCAAGGGCUUCAUAAGCUACACCGGCCAACGCAGAAAUGCCUUAAGCCCGAGUUAACGACAGGAGGCUCACAACAGGA
# modifications: 2'-F pyrimidines (all C and U)
# B3: D4 (ssRNA)
# RNA: GGGAGACAAGAAUAAACGCUCAAGCGCGGGAAUAGUAUGGAAGGAUACGUAUACCGUGCAAUCCAGGGCAACGAACGACAGGAGGCUCACAACAGGA
# modifications: 2'-F pyrimidines (all C and U)
# Experiments:
# [1] = target: T1, Ret receptor tyrosine kinase C634Y (RetC634Y) on PC12 MEN 2A cells (Homo sapiens, UniProt P07949 P07949:29-1114, C634Y); assay: whole PC12 MEN 2A cells, RPMI, 37C, 10 min, polyinosine competitor; target on cell not directly proven; 102 ± 58 x1000 targets/cell; details: tags: stably transfected in rat PC12 cells; constitutive homodimer; chain copies: 2 (inferred); label: 5'-32P; stem-loop with internal loops (predicted)
# T1 sequence (P07949 29-1114 C634Y, one chain of several): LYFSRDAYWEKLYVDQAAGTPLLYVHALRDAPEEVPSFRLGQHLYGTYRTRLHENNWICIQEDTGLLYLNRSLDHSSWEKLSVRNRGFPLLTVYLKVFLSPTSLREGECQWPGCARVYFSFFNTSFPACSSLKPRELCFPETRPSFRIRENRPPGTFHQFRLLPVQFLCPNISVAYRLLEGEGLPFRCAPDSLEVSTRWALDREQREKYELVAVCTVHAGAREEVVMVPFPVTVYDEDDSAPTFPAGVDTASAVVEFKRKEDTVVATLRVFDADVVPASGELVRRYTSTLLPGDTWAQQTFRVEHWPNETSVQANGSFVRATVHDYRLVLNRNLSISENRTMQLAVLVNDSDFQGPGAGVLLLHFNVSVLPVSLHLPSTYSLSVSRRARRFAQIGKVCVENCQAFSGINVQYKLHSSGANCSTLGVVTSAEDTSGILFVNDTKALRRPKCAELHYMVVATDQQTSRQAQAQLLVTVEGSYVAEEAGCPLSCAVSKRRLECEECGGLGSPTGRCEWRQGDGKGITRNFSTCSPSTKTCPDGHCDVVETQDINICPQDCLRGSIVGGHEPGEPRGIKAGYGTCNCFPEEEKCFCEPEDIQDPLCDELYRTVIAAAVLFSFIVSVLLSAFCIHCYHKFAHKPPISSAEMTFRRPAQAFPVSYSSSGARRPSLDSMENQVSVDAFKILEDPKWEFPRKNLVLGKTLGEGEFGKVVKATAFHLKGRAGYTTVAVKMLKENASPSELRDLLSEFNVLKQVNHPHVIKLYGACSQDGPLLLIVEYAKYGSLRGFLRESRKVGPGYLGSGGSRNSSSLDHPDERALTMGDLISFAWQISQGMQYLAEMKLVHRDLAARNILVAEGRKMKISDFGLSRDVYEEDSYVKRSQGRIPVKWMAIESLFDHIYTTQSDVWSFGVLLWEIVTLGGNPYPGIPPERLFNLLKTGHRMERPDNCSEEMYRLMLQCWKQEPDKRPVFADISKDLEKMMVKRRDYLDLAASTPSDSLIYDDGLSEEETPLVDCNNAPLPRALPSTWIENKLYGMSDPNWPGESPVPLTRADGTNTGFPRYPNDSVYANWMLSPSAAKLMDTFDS
# Description: (§1) The binding of the various aptamers (or of the initial pool, as control) to the PC12 MEN 2A cells is carried out in 24-well plates (experiments carried out in triplicate), with 5′-³²P-labeled RNA. 10⁵ cells per well are incubated with various concentrations of aptamers in 200 μl of RPMI for 10 min at 37° C. in the presence of 100 μg/ml of polyinosine, as non-specific competitor. After several washes, the bound sequences are recovered in 350 μl of 0.6% SDS and the amount of radioactivity recovered is related to the number of cells by measuring the protein content in each well.
# [2] = target: T1, Ret receptor tyrosine kinase C634Y …; assay: whole PC12 MEN 2A cells, RPMI, 37C; 102 ± 25 x1000 targets/cell; competes with D4 (p188); details: tags: stably transfected in rat PC12 cells; constitutive homodimer; chain copies: 2 (inferred); label: 5'-32P
# Description: as §1
# [3] = target: T1, Ret receptor tyrosine kinase C634Y …; assay: whole PC12 MEN 2A cells, RPMI, 37C, 10 min, polyinosine; 110 ± 47 x1000 targets/cell; no binding to parental PC12, NBTII or HeLa cells lacking Ret; details: tags: stably transfected in rat PC12 cells; constitutive homodimer; chain copies: 2 (inferred); stem-loop with internal loops (predicted)
# Description: as §1
binder,measurement,setting,value
B1,Kd,[1],32 nM
B2,Kd,[2],67 nM
B3,Kd,[3],35 nM
